Data as given in publication PMC9890643.

Target: apolipoprotein A-1 (ApoA1) (UniProt P02647 25-267)
Assay: electrochemical aptasensor

Chain of apolipoprotein A-1 (ApoA1) (P02647 25-267): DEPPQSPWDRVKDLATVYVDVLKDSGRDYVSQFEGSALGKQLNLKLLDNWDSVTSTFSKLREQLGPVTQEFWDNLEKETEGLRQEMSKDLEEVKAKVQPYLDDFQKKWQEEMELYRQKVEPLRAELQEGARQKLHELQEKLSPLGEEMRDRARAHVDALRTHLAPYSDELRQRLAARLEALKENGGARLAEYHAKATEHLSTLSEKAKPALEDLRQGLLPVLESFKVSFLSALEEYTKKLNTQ

## CCTCGGCACGTTCTCAGTAGCGCTCGCTGGTCATCCCACA (ssDNA, 5'-thiol-C6) [ApoA1 thiolated aptamer]
  binding result: binds
